# Test results: patent US20260167677A1, “ANTI-ADAM10 ANTIBODIES AND USES IN TREATMENT OF CANCER” (Memorial Sloan Kettering Cancer Center, priority 2022, published 2026)
# B1: 1H5 Fab: Fab fragment of fully human anti-ADAM10 antibody 1H5 (antibody)
# heavy: QVQLVESGGGLVKPGGSLRLSCAASGFTFSDYYMSWIRQAPGKGLEWVSYISSSGSTIYYADSVKGRFTISRDNAKNSLYLQMNSLRAEDTAVYYCARDFYDSKIFDYWGQGTLVTVSSASTKGPSVFPLAPSSKSTSGGTAALGCLVKDYFPEPVTVSWNSGALTSGVHTFPAVLQSSGLYSLSSVVTVPSSSLGTQTYICNVNHKPSNTKVDKKVEPKSCDKT
# light: DIQMTQSPSSLSASVGDRVTITCRASQSISSYLNWYQQKPGKAPKLLIYAASSLQSGVPSRFSGSGSGTDFTLTISSLQPEDVGVYYCMEGLKTPFTFGPGTKLEIKRTVAAPSVFIFPPSDEQLKSGTASVVCLLNNFYPREAKVQWKVDNALQSGNSQESVTEQDSKDSTYSLSSTLTLSKADYEKHKVYACEVTHQGLSSPVTKSFNRGEC
# Test system: human APP
# Test: Western blot of APP shedding in U2OS cells transfected with human APP
# Assay type: cell-based
# Settings: 31 nM to 1 μM
# Procedure: U2OS cells transiently transfected with human APP releases the extracellular portion of APP to the media.
# The release of sAPPα in the presence of varying concentrations of IHigG/Fab (31 nM to 1 μM) was evaluated using Western blotting. The Western blots were quantitated using the software Image J and glyceraldehyde 3-phosphate dehydrogenase (GAPDH) as loading control. A vector control was included and U20S cells transfected with APP, but untreated, was used to calculate the fold increase in shedding.
molecule,measurement,value
B1,sAPPα shedding,increase
